Measurements: patent US20250295803A1, “5T4 ANTIBODY-DRUG CONJUGATES AND USES THEREOF” (EXELIXIS, INC., priority 2022, published 2025)

T1: unconjugated human TPBG/5T4 protein with a c-terminal polyhistidine and Avi tag (AcroBiosystems Cat. No. … (human, UniProt Q13641 32-355))
T1 construct: Bought protein; also called Acro TPGH52E5; Acro Catalog No. TPGH52E; not shown: C-terminal polyhistidine and Avi tag
T1 sequence: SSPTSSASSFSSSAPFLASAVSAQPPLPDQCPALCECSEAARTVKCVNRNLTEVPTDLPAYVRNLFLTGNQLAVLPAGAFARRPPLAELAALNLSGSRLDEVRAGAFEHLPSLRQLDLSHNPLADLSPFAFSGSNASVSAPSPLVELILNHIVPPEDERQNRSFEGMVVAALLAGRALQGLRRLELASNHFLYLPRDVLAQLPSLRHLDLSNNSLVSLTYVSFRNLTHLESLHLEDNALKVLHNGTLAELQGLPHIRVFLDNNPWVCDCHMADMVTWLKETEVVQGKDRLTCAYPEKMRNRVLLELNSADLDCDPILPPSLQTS

T2: human 5T4 produced internally (Lot 20-019-62) (human, UniProt Q13641 32-355)
T2 construct: 'also produced separately'; also called Internal (Lot 20-019-62)
T2 sequence: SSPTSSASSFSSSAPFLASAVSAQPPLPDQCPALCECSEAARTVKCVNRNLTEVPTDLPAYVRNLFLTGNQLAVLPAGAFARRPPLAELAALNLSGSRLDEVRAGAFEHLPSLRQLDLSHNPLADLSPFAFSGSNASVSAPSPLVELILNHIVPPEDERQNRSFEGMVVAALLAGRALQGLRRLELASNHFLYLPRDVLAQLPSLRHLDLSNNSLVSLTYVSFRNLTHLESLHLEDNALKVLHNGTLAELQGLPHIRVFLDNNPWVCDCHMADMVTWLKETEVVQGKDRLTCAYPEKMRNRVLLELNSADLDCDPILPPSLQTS

T3: HEK293 and CHO cells transfected to express rat 5T4 (Rattus norvegicus, UniProt Q5PQV5)
T3 construct: expressed in transfected cells; host or cells: HEK293 and CHO
T3 sequence (Q5PQV5 32-426): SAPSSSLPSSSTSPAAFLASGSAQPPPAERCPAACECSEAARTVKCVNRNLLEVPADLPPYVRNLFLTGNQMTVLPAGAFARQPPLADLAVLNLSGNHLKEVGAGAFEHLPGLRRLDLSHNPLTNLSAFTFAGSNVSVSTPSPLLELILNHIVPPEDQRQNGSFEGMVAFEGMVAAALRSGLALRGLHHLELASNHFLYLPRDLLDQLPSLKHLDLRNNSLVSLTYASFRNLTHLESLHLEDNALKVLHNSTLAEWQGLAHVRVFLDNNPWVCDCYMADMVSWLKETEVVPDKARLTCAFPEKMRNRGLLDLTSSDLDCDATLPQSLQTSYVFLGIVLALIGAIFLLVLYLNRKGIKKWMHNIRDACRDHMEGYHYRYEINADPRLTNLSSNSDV


Assays:
[1] = molecular target: T1, unconjugated human TPBG/5T4 protein …; test: ELISA on coated human 5T4 His-Avi (Acro TPG-H52E5); antibody condition: pH 8.5 Day 1
Protocol: (§1) A. Normal Binding Unconjugated antibodies were tested for their ability to bind to human 5T4 (hu5T4) using ELISA. On Day 1, unconjugated human TPBG/5T4 protein with a c-terminal polyhistidine and Avi (AVITAG™) tag (AcroBiosystems (Newark, DE, USA), Cat. No. TPG-H52E5) was diluted 2 μg/mL in PBS, mixed thoroughly, plated 100 μL per well in a 96-well plate (Nunc MAXISORP®) and incubated overnight at 4° C.

[2] = molecular target: T2, human 5T4 produced internally (Lot …); test: Octet, antibody on AHC sensors, human 5T4 in solution (monovalent); Internal Lot 20-019-62
Protocol: (§2) Monovalent binding assays were employed to determine the relative affinity of each 5T4 binder obtained by the phage display in Example 1 to human 5T4. Human 5T4 was purchased from Acro Biosystems (Acro Catalog No. TPGH52E) and also produced separately. The monovalent interaction of binders to human 5T4 was monitored using an Octet (Pall ForteBio) instrument. For these assays, 36 nM antibody was immobilized on anti-human Fc (AHC) sensors in 1× kinetic buffer (ForteBio). The sensors were then dipped in wells containing a 3× serial dilution of human 5T4 ranging from 1 μM to 1.37 nM. The association was allowed to reach equilibrium. Sensors were then moved to wells containing only 1× kinetic buffer and allowed to dissociate to equilibrium. Association and dissociation rates were measured and from these, monovalent KDS were calculated using the onboard analysis software (ForteBio).

[3] = molecular target: T1, unconjugated human TPBG/5T4 protein …; test: ELISA on coated human 5T4 His-Avi (Acro TPG-H52E5); antibody condition: PBS + H2O2 time 24 hr.
Protocol: as §1
3. Oxidative Stress. Several unconjugated antibodies were tested for their ability to bind to 5T4 using ELISA in an oxidative environment. […]

[4] = molecular target: T1, unconjugated human TPBG/5T4 protein …; test: Octet, antibody on AHC sensors, human 5T4 in solution (monovalent); Acro TPGH52E5 Lot B465-87AF1-JP
Protocol: as §2

[5] = test system: HEK-5T4 cells; test: Cell binding (flow cytometry), HEK-5T4 cells; assay type: cell-based
Protocol: Antibodies that were selected for binding to 5T4, for example, such as those described in Example 2, were evaluated for binding to cells that express 5T4. Cells were harvested at 70-90% confluence on the day of the assay. In a v-bottom 96-well plate (Costar 3897), 100,000 cells per well were incubated with 50 μL per well 8- or 12-point antibody dilution series for 30 minutes at +4° C. After incubation, cells were washed once with PBS by centrifugation at 200×g for 5 minutes. Cells were then incubated with 50 μL per well of Alexa Fluor 488 Goat anti-human IgG Fab (Jackson Immuno Research 109-547-003) at 1:100 dilution for 30 minutes at +4° C. Cells were washed twice with PBS by centrifugation at 200×g for 5 minutes and were acquired on iQue Screener Plus (Sartorius). Mean fluorescence intensities of BL1 (Alexa-Fluor-488) channel were plotted against antibody concentrations to generate a dose response curve and EC50 values.

[6] = test system: HEK-5T4 cells; test: Internalization assay (Incucyte FabFluor-pH), HEK-5T4 cells; assay type: cell-based
Protocol: Adherent cells were harvested at 70-90% confluence and were plated overnight at 37° C. in a 96-well black, clear/flat bottom half-area plate (Corning 3882) at 20,000 cells/well in 50 μL culture media. For suspension cell lines, 96-well plates were coated with poly-L-ornithine solution (Millipore-Sigma) for 1 hour at 37° C. and cells were seeded at 40,000 cells per/well density in 50 μL culture media, about 1 to 2 hours prior to the assay. Antibodies were diluted in cell culture media, mixed with 3× molar concentration of Incucyte human FabFluor-pH red antibody labelling reagent and incubated for 15 minutes at room temperature. 2× final concentration of all dilutions of antibody/FabFluor mix was prepared. 50 μL of 2× antibody/Fab-Fluor mix was then directly added to every well with pre-seeded cells in duplicates and plate was quickly transferred to Incucyte. Plates were then scanned every 30 minutes for up to 24 hours. Care was taken to begin the first scanning (0 hour) within 2 to 3 minutes of adding antibody/FabFluor mix to the cells. Plates were analyzed by reading the red signal generated overtime, normalized to the % confluence of cells in that well. Few antibodies were tested at different concentrations on target cell lines, and the best concentration was selected based on a good signal:noise ratio.

[7] = molecular target: T3, HEK293 and CHO cells transfected to express rat 5T4; test: Cell binding to transfected HEK293 and CHO cells, rat 5T4; assay type: cell-based
Protocol: Unconjugated antibodies were tested for their ability to bind to HEK293 and CHO cells transfected to express human, cyno, rat, or mouse 5T4.

Molecule	EC50 [1] [nM]	Kd [2] [nM]	EC50 [3] [nM]	Kd [4] [nM]	binding to HEK-5T4 cells [5]	internalization in HEK-5T4 cells [6]	reactivity to cells transfected to express rat 5T4 [7]
mAbA17 (antibody, V domains shown, also called Antibody mAbA17) VH: EVQLVESGGGLVQPGGSLRLSCAASGFTFSRYWIHWVRQAPGKGLEWVAAIFPYSGSTLYADSVKGRFTISADTSKNTAYLQMNSLRAEDTAVYYCARSPSRSILPSGLDYWGQGTLVTVSS VL: DIQMTQSPSSLSASVGDRVTITCRASQSVSSAVAWYQQKPGKAPKLLIYSASSLYSGVPSRFSGSRSGTDFTLTISSLQPEDFATYYCQQGDGSPYTFGQGTKVEIKR	0.174	9.34	0.183	21.1			
mAbA4 (antibody, V domains shown, also called Antibody mAbA4) VH: EVQLVESGGGLVQPGGSLRLSCAASGFTFSRYYIHWVRQAPGKGLEWVAFISPGGSYTYYADSVKGRFTISADTSKNTAYLQMNSLRAEDTAVYYCAREYYSMGVLDYWGQGTLVTVSS VL: DIQMTQSPSSLSASVGDRVTITCRASQSVSSAVAWYQQKPGKAPKLLIYSASSLYSGVPSRFSGSRSGTDFTLTISSLQPEDFATYYCQQAYESPYTFGQGTKVEIKR	0.127	83	0.393	30.2			
mAbA15 (antibody, V domains shown, also called Antibody mAbA15) VH: EVQLVESGGGLVQPGGSLRLSCAASGFTFSSYYIHWVRQAPGKGLEWVAYITSTGSYTEYADSVKGRFTISADTSKNTAYLQMNSLRAEDTAVYYCARYDRSTRYSGLDYWGQGTLVTVSS VL: DIQMTQSPSSLSASVGDRVTITCRASQSVSSAVAWYQQKPGKAPKLLIYSASSLYSGVPSRFSGSRSGTDFTLTISSLQPEDFATYYCQQAYATPVTFGQGTKVEIKR	0.128	10.4	0.19	11.2			
mAbA4: 5T4 antibody comprising VH of SEQ ID NO:25 and VL of SEQ ID NO:26 (antibody, V domains shown, Antibody mAbA4 VH Sequence; Antibody mAbA4 VL Sequence) VH: EVQLVESGGGLVQPGGSLRLSCAASGFTFSRYYIHWVRQAPGKGLEWVAFISPGGSYTYYADSVKGRFTISADTSKNTAYLQMNSLRAEDTAVYYCAREYYSMGVLDYWGQGTLVTVSS VL: DIQMTQSPSSLSASVGDRVTITCRASQSVSSAVAWYQQKPGKAPKLLIYSASSLYSGVPSRFSGSRSGTDFTLTISSLQPEDFATYYCQQAYESPYTFGQGTKVEIK					binding	strong internalization	not to cells transfected to express rat or mouse 5T4
mAbA15: 5T4 antibody comprising VH of SEQ ID NO:44 and VL of SEQ ID NO:45 (antibody, V domains shown, Antibody mAbA15 VH Sequence; Antibody mAbA15 VL Sequence) VH: EVQLVESGGGLVQPGGSLRLSCAASGFTFSSYYIHWVRQAPGKGLEWVAYITSTGSYTEYADSVKGRFTISADTSKNTAYLQMNSLRAEDTAVYYCARYDRSTRYSGLDYWGQGTLVTVSS VL: DIQMTQSPSSLSASVGDRVTITCRASQSVSSAVAWYQQKPGKAPKLLIYSASSLYSGVPSRFSGSRSGTDFTLTISSLQPEDFATYYCQQAYATPVTFGQGTKVEIK					binding	strong internalization	not to cells transfected to express rat or mouse 5T4
mAbA17: 5T4 antibody comprising VH of SEQ ID NO:62 and VL of SEQ ID NO:63 (antibody, V domains shown, Antibody mAbA17 VH Sequence; Antibody mAbA17 VL Sequence) VH: EVQLVESGGGLVQPGGSLRLSCAASGFTFSRYWIHWVRQAPGKGLEWVAAIFPYSGSTLYADSVKGRFTISADTSKNTAYLQMNSLRAEDTAVYYCARSPSRSILPSGLDYWGQGTLVTVSS VL: DIQMTQSPSSLSASVGDRVTITCRASQSVSSAVAWYQQKPGKAPKLLIYSASSLYSGVPSRFSGSRSGTDFTLTISSLQPEDFATYYCQQGDGSPYTFGQGTKVEIK					binding		not to cells transfected to express rat or mouse 5T4
